According to paper PMC13480645:

Legend:
[1] = target: SARS-CoV-2 S-2P protein (SARS-CoV-2 | bacteriophage T4)
S2P6 (human) = assay: BLI
S2P6 (human), sequence (VH, as listed by the source, chain 1 of 2): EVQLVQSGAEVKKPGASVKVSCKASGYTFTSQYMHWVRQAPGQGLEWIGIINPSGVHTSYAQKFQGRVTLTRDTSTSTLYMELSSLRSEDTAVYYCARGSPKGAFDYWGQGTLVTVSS
S2P6 (human), sequence (VL, as listed by the source, chain 2 of 2): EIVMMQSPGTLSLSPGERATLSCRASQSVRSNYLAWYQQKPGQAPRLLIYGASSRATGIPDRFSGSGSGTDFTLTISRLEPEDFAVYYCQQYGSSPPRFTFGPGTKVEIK

S2P6 (antibody), sequence (VH): as the sequence (VH, as listed by the source, chain 1 of 2) above
S2P6 (antibody), sequence (VL): as the sequence (VL, as listed by the source, chain 2 of 2) above

| Substance | IC50 of neutralisation of SARS-CoV-2 pseudovirus (HeLa-hACE2 cells) [1] [µg/mL] | Kd (S2P6 (human)) [nM] | kon (S2P6 (human)) [M⁻¹ s⁻¹] |
| --- | --- | --- | --- |
| S2P6 (antibody) | 6.16 |  |  |
| SARS-CoV-2 S-2P protein (domain or fragment) |  | 1.3 | 559000 |
